Results from patent publication US20200199241A1 (Chugai, published 2020).
Numbering of substitutions follows the chain as printed.

B1: IgG1-F1058 (antibody)
heavy: QVQLQESGPGLVKPSETLSLTCAVSGHSISHDHAWSWVRQPPGEGLEWIGFISYSGITNYNPSLQGRVTISRDNSKNTLYLQMNSLRAEDTAVYYCARSLARTTAMDYWGEGTLVTVSSASTKGPSVFPLAPSSKSTSGGTAALGCLVKDYFPEPVTVSWNSGALTSGVHTFPAVLQSSGLYSLSSVVTVPSSSLGTQTYICNVNHKPSNTKVDKKVEPKSCDKTHTCPPCPAPELLGGPSVFLFPPKPKDTLYISRTPEVTCVVVDVSHEDPEVKFNWYVDGVEVHNAKTKPREEQYNSTYRVVSVLTVLHQDWLNGKEYKCKVSNKALPAPIEKTISKAKGQPREPQVYTLPPSRDELTKNQVSLTCLVKGFYPSDIAVEWESNGEPENNYKTTPPVLDSDGSFFLYSKLTVDKSRWQQGNVFSCSVMHEALHYHVTQKSLSLSP
light: not shown
notes: EU numbering; copies: 2 + 2
B2: IgG1-F1108 (antibody)
heavy: B1 heavy with E388Q, V424K
light: not shown
notes: EU numbering; copies: 2 + 2
B3: IgG1-F1107 (antibody)
heavy: B1 heavy with E388Q, V424D
light: not shown
notes: EU numbering; copies: 2 + 2
B4: IgG1-F1083 (antibody)
heavy: B1 heavy with E388Q, V438Y, S442N
light: not shown
notes: EU numbering; copies: 2 + 2
B5: IgG1-F1121 (antibody)
heavy: B1 heavy with T252V, T309Q, V310P, Q313A, E388Q, V424E, S426R
light: not shown
notes: EU numbering; copies: 2 + 2
B6: IgG1-F1106 (antibody)
heavy: B1 heavy with E388Q, Q440R, S442E
light: not shown
notes: EU numbering; copies: 2 + 2
B7: IgG1-F1094 (antibody)
heavy: B1 heavy with E388Q, V438Y, S444N
light: not shown
notes: EU numbering; copies: 2 + 2
B8: IgG1-F1101 (antibody)
heavy: B1 heavy with S241D, T309Q, Q313A, E388Q, V438Y
light: not shown
notes: EU numbering; copies: 2 + 2
B9: IgG1-F1112 (antibody)
heavy: B1 heavy with E388Q, Q440K
light: not shown
notes: EU numbering; copies: 2 + 2
B10: IgG1-F1124 (antibody)
heavy: B1 heavy with T252V, T309Q, V310P, Q313A, E388Q, Q440R, S442E
light: not shown
notes: EU numbering; copies: 2 + 2
B11: IgG1-F1132 (antibody)
heavy: B1 heavy with L237R, S241K, E388Q, V424S
light: not shown
notes: EU numbering; copies: 2 + 2
B12: IgG1-F1059 (antibody)
heavy: B1 heavy with E388R
light: not shown
notes: EU numbering; copies: 2 + 2
B13: IgG1-F1064 (antibody)
heavy: B1 heavy with E388Q, V424E
light: not shown
notes: EU numbering; copies: 2 + 2
B14: IgG1-F1118 (antibody)
heavy: B1 heavy with T252V, T309Q, V310P, Q313A, E388Q, S426N
light: not shown
notes: EU numbering; copies: 2 + 2
B15: IgG1-F1116 (antibody)
heavy: B1 heavy with T309Q, Q313A, E388Q, S426N, V438Y
light: not shown
notes: EU numbering; copies: 2 + 2
B16: IgG1-F1074 (antibody)
heavy: B1 heavy with S241D, E388Q
light: not shown
notes: EU numbering; copies: 2 + 2
B17: IgG1-F1135 (antibody)
heavy: B1 heavy with L237R, S241K, E388Q, S442E
light: not shown
notes: EU numbering; copies: 2 + 2
B18: IgG1-F1061 (antibody)
heavy: B1 heavy with E388Q, P389E
light: not shown
notes: EU numbering; copies: 2 + 2
B19: IgG1-F1104 (antibody)
heavy: B1 heavy with E388Q, V424E, S426R
light: not shown
notes: EU numbering; copies: 2 + 2
B20: IgG1-F1127 (antibody)
heavy: B1 heavy with Q313A, E388Q
light: not shown
notes: EU numbering; copies: 2 + 2
B21: IgG1-F1080 (antibody)
heavy: B1 heavy with E388Q, S426N, V438Y
light: not shown
notes: EU numbering; copies: 2 + 2
B22: IgG1-F1098 (antibody)
heavy: B1 heavy with S241D, E388Q, V438Y
light: not shown
notes: EU numbering; copies: 2 + 2
B23: IgG1-F1081 (antibody)
heavy: B1 heavy with E388Q, V438N, Q440T
light: not shown
notes: EU numbering; copies: 2 + 2
B24: IgG1-F1123 (antibody)
heavy: B1 heavy with T252V, T309Q, V310P, Q313A, E388Q, S442E
light: not shown
notes: EU numbering; copies: 2 + 2
B25: IgG1-F1114 (antibody)
heavy: B1 heavy with E388Q, S442Q
light: not shown
notes: EU numbering; copies: 2 + 2
B26: IgG1-F1103 (antibody)
heavy: B1 heavy with S241D, T309Q, Q313A, K328D, L330Y, E388Q, V438Y
light: not shown
notes: EU numbering; copies: 2 + 2
B27: IgG1-F1133 (antibody)
heavy: B1 heavy with L237R, S241K, E388Q, S426R
light: not shown
notes: EU numbering; copies: 2 + 2
B28: IgG1-F1063 (antibody)
heavy: B1 heavy with E388Q, P389S
light: not shown
notes: EU numbering; copies: 2 + 2
B29: IgG1-F1111 (antibody)
heavy: B1 heavy with E388Q, S426K
light: not shown
notes: EU numbering; copies: 2 + 2
B30: IgG1-F1073 (antibody)
heavy: B1 heavy with E388Q, S442R
light: not shown
notes: EU numbering; copies: 2 + 2
B31: IgG1-F1117 (antibody)
heavy: B1 heavy with T252V, T309Q, Q313A, E388Q, S426N
light: not shown
notes: EU numbering; copies: 2 + 2
B32: IgG1-F1122 (antibody)
heavy: B1 heavy with T252V, T309Q, V310P, Q313A, E388Q, Q440R
light: not shown
notes: EU numbering; copies: 2 + 2
B33: IgG1-F1130 (antibody)
heavy: B1 heavy with T309A, Q313A, E388Q
light: not shown
notes: EU numbering; copies: 2 + 2
B34: IgG1-F1102 (antibody)
heavy: B1 heavy with T309Q, Q313A, K328D, L330Y, E388Q, V438Y
light: not shown
notes: EU numbering; copies: 2 + 2
B35: IgG1-F1096 (antibody)
heavy: B1 heavy with E388T, V438Y
light: not shown
notes: EU numbering; copies: 2 + 2
B36: IgG1-F1082 (antibody)
heavy: B1 heavy with E388Q, V438Y, Q440N
light: not shown
notes: EU numbering; copies: 2 + 2
B37: IgG1-F1115 (antibody)
heavy: B1 heavy with E388Q, S426N
light: not shown
notes: EU numbering; copies: 2 + 2
B38: IgG1-F1126 (antibody)
heavy: B1 heavy with T309A, E388Q
light: not shown
notes: EU numbering; copies: 2 + 2
B39: IgG1-F1129 (antibody)
heavy: B1 heavy with T309Q, Q313H, E388Q
light: not shown
notes: EU numbering; copies: 2 + 2
B40: IgG1-F1075 (antibody)
heavy: B1 heavy with K328D, L330Y, E388Q
light: not shown
notes: EU numbering; copies: 2 + 2
B41: IgG1-F1067 (antibody)
heavy: B1 heavy with E388Q, S426E
light: not shown
notes: EU numbering; copies: 2 + 2
B42: IgG1-F1134 (antibody)
heavy: B1 heavy with L237R, S241K, E388Q, Q440R
light: not shown
notes: EU numbering; copies: 2 + 2
B43: IgG1-F1095 (antibody)
heavy: B1 heavy with S385N, G387S, E388Q, V438Y
light: not shown
notes: EU numbering; copies: 2 + 2
B44: IgG1-F1069 (antibody)
heavy: B1 heavy with E388Q, Q440E
light: not shown
notes: EU numbering; copies: 2 + 2
B45: IgG1-F1070 (antibody)
heavy: B1 heavy with E388Q, Q440R
light: not shown
notes: EU numbering; copies: 2 + 2
B46: IgG1-F1109 (antibody)
heavy: B1 heavy with E388Q, V424T
light: not shown
notes: EU numbering; copies: 2 + 2
B47: IgG1-F1100 (antibody)
heavy: B1 heavy with S241D, K328D, L330Y, E388Q, V438Y
light: not shown
notes: EU numbering; copies: 2 + 2
B48: IgG1-F1131 (antibody)
heavy: B1 heavy with L237R, S241K, E388Q, V424E
light: not shown
notes: EU numbering; copies: 2 + 2
B49: IgG1-F1128 (antibody)
heavy: B1 heavy with Q313H, E388Q
light: not shown
notes: EU numbering; copies: 2 + 2
B50: IgG1-F1110 (antibody)
heavy: B1 heavy with E388Q, V424Q
light: not shown
notes: EU numbering; copies: 2 + 2
B51: IgG1-F1068 (antibody)
heavy: B1 heavy with E388Q, S426R
light: not shown
notes: EU numbering; copies: 2 + 2
B52: IgG1-F1077 (antibody)
heavy: B1 heavy with K250N, E388Q, V438Y
light: not shown
notes: EU numbering; copies: 2 + 2
B53: IgG1-F1097 (antibody)
heavy: B1 heavy with G387N, E388Q, P389S, V438Y
light: not shown
notes: EU numbering; copies: 2 + 2
B54: IgG1-F1119 (antibody)
heavy: B1 heavy with T252V, T309Q, V310P, Q313A, E388Q, V424E
light: not shown
notes: EU numbering; copies: 2 + 2
B55: IgG1-F1066 (antibody)
heavy: B1 heavy with E388Q, V424S
light: not shown
notes: EU numbering; copies: 2 + 2
B56: IgG1-F1105 (antibody)
heavy: B1 heavy with E388Q, V424S, S426R
light: not shown
notes: EU numbering; copies: 2 + 2
B57: IgG1-F1120 (antibody)
heavy: B1 heavy with T252V, T309Q, V310P, Q313A, E388Q, S426R
light: not shown
notes: EU numbering; copies: 2 + 2
B58: IgG1-F1065 (antibody)
heavy: B1 heavy with E388Q, V424R
light: not shown
notes: EU numbering; copies: 2 + 2
B59: IgG1-F1062 (antibody)
heavy: B1 heavy with E388Q, P389R
light: not shown
notes: EU numbering; copies: 2 + 2
B60: IgG1-F1125 (antibody)
heavy: B1 heavy with T309Q, E388Q
light: not shown
notes: EU numbering; copies: 2 + 2

target: T1, soluble human FcRn complexed with β2-microglobulin (human, UniProt P61769 21-119, limits assumed); test: Biacore SPR, pH 7.0;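 note: test antibodies captured on a Protein L chip with human FcRn flowed over as analyte, KD obtained as the ratio of dissociation to association rate constants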
T1 construct: also called hFcRn
T1 sequence (chain, as listed by the source limits assumed, chain 1 of 2): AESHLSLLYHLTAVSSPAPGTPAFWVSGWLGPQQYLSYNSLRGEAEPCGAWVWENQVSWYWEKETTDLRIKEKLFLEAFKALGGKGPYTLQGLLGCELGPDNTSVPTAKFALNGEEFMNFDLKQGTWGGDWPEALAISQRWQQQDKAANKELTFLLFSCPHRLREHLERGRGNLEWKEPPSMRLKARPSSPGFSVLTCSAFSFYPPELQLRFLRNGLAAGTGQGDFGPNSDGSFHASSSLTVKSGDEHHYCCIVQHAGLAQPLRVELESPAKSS
T1 sequence (P61769 21-119 limits assumed, chain 2 of 2): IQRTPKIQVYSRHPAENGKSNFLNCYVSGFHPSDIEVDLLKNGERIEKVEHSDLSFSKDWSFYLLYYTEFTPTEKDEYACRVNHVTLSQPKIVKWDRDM

| Binder | Kd |
| --- | --- |
| B1 | 131 nM |
| B2 | 126 nM |
| B3 | 123 nM |
| B4 | 345 nM |
| B5 | 10.4 nM |
| B6 | 142 nM |
| B7 | 260 nM |
| B8 | 65.9 nM |
| B9 | 123 nM |
| B10 | 12.2 nM |
| B11 | 140 nM |
| B12 | 139 nM |
| B13 | 132 nM |
| B14 | 13.2 nM |
| B15 | 74.4 nM |
| B16 | 132 nM |
| B17 | 126 nM |
| B18 | 119 nM |
| B19 | 177 nM |
| B20 | 79.4 nM |

| Binder | Kd |
| --- | --- |
| B21 | 319 nM |
| B22 | 258 nM |
| B23 | 620 nM |
| B24 | 9.55 nM |
| B25 | 131 nM |
| B26 | 61.1 nM |
| B27 | 158 nM |
| B28 | 143 nM |
| B29 | 165 nM |
| B30 | 134 nM |
| B31 | 48.7 nM |
| B32 | 13.7 nM |
| B33 | 55.4 nM |
| B34 | 64.6 nM |
| B35 | 272 nM |
| B36 | 276 nM |
| B37 | 135 nM |
| B38 | 89.5 nM |
| B39 | 44.8 nM |
| B40 | 140 nM |

| Binder | Kd |
| --- | --- |
| B41 | 126 nM |
| B42 | 166 nM |
| B43 | 286 nM |
| B44 | 139 nM |
| B45 | 173 nM |
| B46 | 127 nM |
| B47 | 241 nM |
| B48 | 129 nM |
| B49 | 117 nM |
| B50 | 133 nM |
| B51 | 169 nM |
| B52 | 2030 nM |
| B53 | 282 nM |
| B54 | 10.3 nM |
| B55 | 145 nM |
| B56 | 154 nM |
| B57 | 10.4 nM |
| B58 | 138 nM |
| B59 | 120 nM |
| B60 | 51.8 nM |
